T1: FLAG-tagged Npl4 (S. cerevisiae, UniProt P33755 1-580)
T1 sequence: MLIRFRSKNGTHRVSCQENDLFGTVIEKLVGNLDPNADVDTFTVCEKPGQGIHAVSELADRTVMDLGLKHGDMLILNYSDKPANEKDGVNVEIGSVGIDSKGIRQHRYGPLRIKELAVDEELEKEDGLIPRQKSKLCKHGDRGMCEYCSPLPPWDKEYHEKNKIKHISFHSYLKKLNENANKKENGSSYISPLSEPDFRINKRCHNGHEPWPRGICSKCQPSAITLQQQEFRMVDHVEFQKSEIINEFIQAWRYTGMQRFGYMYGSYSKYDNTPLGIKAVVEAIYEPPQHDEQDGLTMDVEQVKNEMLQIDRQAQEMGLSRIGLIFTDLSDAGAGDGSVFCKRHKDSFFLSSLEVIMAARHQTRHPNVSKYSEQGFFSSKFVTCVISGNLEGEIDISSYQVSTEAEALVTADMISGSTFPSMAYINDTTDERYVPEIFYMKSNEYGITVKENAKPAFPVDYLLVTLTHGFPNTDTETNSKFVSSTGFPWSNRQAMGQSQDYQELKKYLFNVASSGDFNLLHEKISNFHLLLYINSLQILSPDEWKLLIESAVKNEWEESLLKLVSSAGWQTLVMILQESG

B1: Ufd1 (natural protein, S. cerevisiae, UniProt P53044 1-361, looked up)
chain: MFSGFSSFGGGNGFVNMPQTFEEFFRCYPIAMMNDRIRKDDANFGGKIFLPPSALSKLSMLNIRYPMLFKLTANETGRVTHGGVLEFIAEEGRVYLPQWMMETLGIQPGSLLQISSTDVPLGQFVKLEPQSVDFLDISDPKAVLENVLRNFSTLTVDDVIEISYNGKTFKIKILEVKPESSSKSICVIETDLVTDFAPPVGYVEPDYKALKAQQDKEKKNSFGKGQVLDPSVLGQGSMSTRIDYAGIANSSRNKLSKFVGQGQNISGKAPKAEPKQDIKDMKITFDGEPAKLDLPEGQLFFGFPMVLPKEDEESAAGSKSSEQNFQGQGISLRKSNKRKTKSDHDSSKSKAPKSPEVIEID
B2: Cdc48^2Cys (Cdc48 containing S286C and R333C) (enzyme, S. cerevisiae)
chain: MGEEHKPLLDASGVDPREEDKTATAILRRKKKDNMLLVDDAINDDNSVIAINSNTMDKLELFRGDTVLVKGKKRKDTVLIVLIDDELEDGACRINRVVRNNLRIRLGDLVTIHPCPDIKYATRISVLPIADTIEGITGNLFDVFLKPYFVEAYRPVRKGDHFVVRGGMRQVEFKVVDVEPEEYAVVAQDTIIHWEGEPINREDEENNMNEVGYDDIGGCRKQMAQIREMVELPLRHPQLFKAIGIKPPRGVLMYGPPGTGKTLMARAVANETGAFFFLINGPEVMCKMAGESESNLRKAFEEAEKNAPAIIFIDEIDSIAPKRDKTNGEVERCVVSQLLTLMDGMKARSNVVVIAATNRPNSIDPALRRFGRFDREVDIGIPDATGRLEVLRIHTKNMKLADDVDLEALAAETHGYVGADIASLCSEAAMQQIREKMDLIDLDEDEIDAEVLDSLGVTMDNFRFALGNSNPSALRETVVESVNVTWDDVGGLDEIKEELKETVEYPVLHPDQYTKFGLSPSKGVLFYGPPGTGKTLLAKAVATEVSANFISVKGPELLSMWYGESESNIRDIFDKARAAAPTVVFLDELDSIAKARGGSLGDAGGASDRVVNQLLTEMDGMNAKKNVFVIGATNRPDQIDPAILRPGRLDQLIYVPLPDENARLSILNAQLRKTPLEPGLELTAIAKATQGFSGADLLYIVQRAAKYAIKDSIEAHRQHEAEKEVKVEGEDVEMTDEGAKAEQEPEVDPVPYITKEHFAEAMKTAKRSVSDAELRRYEAYSQQMKASRGQFSNFNFNDAPLGTTATDNANSNNSAPSGAGAAFGSNAEEDDDLYS
modifications: disulfide bridges between neighbouring protomers after oxidation

Experiments:
FLAG-tagged Npl4 = biological target: T1, FLAG-tagged Npl4; experiment: pull-down
cross-linking = biological target: the molecule itself; experiment: cross-linking

Row | Binder | binding result (FLAG-tagged Npl4) | stoichiometry N (cross-linking)
1 | B1 | binds | 
2 | B2 |  | 6

From article PMC8818041 (Molecular cell, 2021)
